From the supplement of paper PMC9112550, “Optimization of the antimicrobial peptide Bac7 by deep mutational scanning” (BMC Biology, 2022)

Tested on: Escherichia coli TOP10
Experiment: shrunken log2 fold change of peptide-encoding DNA abundance (4.5 h post-induction vs induction); higher = less antimicrobial activity (less host growth inhibition)
Conditions: time post-induction: 4.5 h; library: site-saturation at positions 5, 18, 19, 20
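Note: peptides expressed intracellularly from a pBAD plasmid library in pooled LB shake-flask culture, induced with 0.3% L-arabinose, DNA abundance read by NGS, three biological replicates, DESeq2 with apeglm shrinkage.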

| Sequence | shrunken log2 fold change |
| --- | --- |
| RRIRYRPPRLPRPRPRPDPMPRP | -0.0159 |
| RRIRYRPPRLPRPRPRPDPNPRP | -0.57 |
| RRIRYRPPRLPRPRPRPDQDPRP | -0.0701 |
| RRIRYRPPRLPRPRPRPDRRPRP | -0.177 |
| RRIRYRPPRLPRPRPRPDTVPRP | 0.019 |
| RRIRYRPPRLPRPRPRPDYVPRP | -0.447 |
| RRIRYRPPRLPRPRPRPECRPRP | -0.142 |
| RRIRYRPPRLPRPRPRPECWPRP | 0.192 |
| RRIRYRPPRLPRPRPRPEDFPRP | -0.00133 |
| RRIRYRPPRLPRPRPRPEDNPRP | -0.0125 |
| RRIRYRPPRLPRPRPRPEETPRP | -0.119 |
| RRIRYRPPRLPRPRPRPEFFPRP | -0.0803 |
| RRIRYRPPRLPRPRPRPEGRPRP | 0.172 |
| RRIRYRPPRLPRPRPRPEGVPRP | -0.0041 |
| RRIRYRPPRLPRPRPRPEIAPRP | -0.185 |
| RRIRYRPPRLPRPRPRPEIMPRP | -0.272 |
| RRIRYRPPRLPRPRPRPEIRPRP | -0.0132 |
| RRIRYRPPRLPRPRPRPEKKPRP | -0.0472 |
| RRIRYRPPRLPRPRPRPEKTPRP | 0.0635 |
| RRIRYRPPRLPRPRPRPELLPRP | -0.157 |
| RRIRYRPPRLPRPRPRPEPGPRP | 0.215 |
| RRIRYRPPRLPRPRPRPEPKPRP | 0.0661 |
| RRIRYRPPRLPRPRPRPEQDPRP | -0.0203 |
| RRIRYRPPRLPRPRPRPERAPRP | 0.173 |
| RRIRYRPPRLPRPRPRPERMPRP | -0.459 |

| Sequence | shrunken log2 fold change |
| --- | --- |
| RRIRYRPPRLPRPRPRPERSPRP | -0.00131 |
| RRIRYRPPRLPRPRPRPETGPRP | -0.0691 |
| RRIRYRPPRLPRPRPRPEVCPRP | -0.0334 |
| RRIRYRPPRLPRPRPRPEVGPRP | 0.0159 |
| RRIRYRPPRLPRPRPRPEWVPRP | -0.0265 |
| RRIRYRPPRLPRPRPRPEYGPRP | -0.249 |
| RRIRYRPPRLPRPRPRPFAAPRP | -0.508 |
| RRIRYRPPRLPRPRPRPFDSPRP | -0.0136 |
| RRIRYRPPRLPRPRPRPFEKPRP | 0.021 |
| RRIRYRPPRLPRPRPRPFGAPRP | -0.391 |
| RRIRYRPPRLPRPRPRPFHAPRP | 0.207 |
| RRIRYRPPRLPRPRPRPFHLPRP | -0.532 |
| RRIRYRPPRLPRPRPRPFKRPRP | -0.294 |
| RRIRYRPPRLPRPRPRPFLSPRP | -0.0547 |
| RRIRYRPPRLPRPRPRPFMKPRP | -0.272 |
| RRIRYRPPRLPRPRPRPFNEPRP | -1.01 |
| RRIRYRPPRLPRPRPRPFPTPRP | -0.781 |
| RRIRYRPPRLPRPRPRPFQGPRP | 0.0712 |
| RRIRYRPPRLPRPRPRPFQWPRP | 0.0299 |
| RRIRYRPPRLPRPRPRPFTAPRP | -0.311 |
| RRIRYRPPRLPRPRPRPFTMPRP | -0.558 |
| RRIRYRPPRLPRPRPRPFTQPRP | -0.646 |
| RRIRYRPPRLPRPRPRPFVKPRP | -0.79 |
| RRIRYRPPRLPRPRPRPFVYPRP | -1.51 |
| RRIRYRPPRLPRPRPRPFWYPRP | -0.234 |

| Sequence | shrunken log2 fold change |
| --- | --- |
| RRIRYRPPRLPRPRPRPFYGPRP | 0.0392 |
| RRIRYRPPRLPRPRPRPGACPRP | -0.497 |
| RRIRYRPPRLPRPRPRPGAFPRP | -0.805 |
| RRIRYRPPRLPRPRPRPGAWPRP | 0.0731 |
| RRIRYRPPRLPRPRPRPGCWPRP | 0.289 |
| RRIRYRPPRLPRPRPRPGDGPRP | 0.0695 |
| RRIRYRPPRLPRPRPRPGEDPRP | -0.00904 |
| RRIRYRPPRLPRPRPRPGEGPRP | 0.00405 |
| RRIRYRPPRLPRPRPRPGFYPRP | -0.406 |
| RRIRYRPPRLPRPRPRPGGIPRP | -0.0836 |
| RRIRYRPPRLPRPRPRPGIVPRP | -0.384 |
| RRIRYRPPRLPRPRPRPGPYPRP | -0.771 |
| RRIRYRPPRLPRPRPRPGQMPRP | -0.553 |
| RRIRYRPPRLPRPRPRPGRSPRP | -0.184 |
| RRIRYRPPRLPRPRPRPGSCPRP | -0.308 |
| RRIRYRPPRLPRPRPRPGTLPRP | -0.803 |
| RRIRYRPPRLPRPRPRPGTNPRP | -0.163 |
| RRIRYRPPRLPRPRPRPGVDPRP | -0.0308 |
| RRIRYRPPRLPRPRPRPGVFPRP | -0.0987 |
| RRIRYRPPRLPRPRPRPGVGPRP | -0.103 |
| RRIRYRPPRLPRPRPRPHAWPRP | -0.129 |
| RRIRYRPPRLPRPRPRPHCEPRP | -0.00822 |
| RRIRYRPPRLPRPRPRPHCPPRP | -0.0417 |
| RRIRYRPPRLPRPRPRPHDKPRP | -0.661 |
| RRIRYRPPRLPRPRPRPHDQPRP | -0.188 |

| Sequence | shrunken log2 fold change |
| --- | --- |
| RRIRYRPPRLPRPRPRPHDYPRP | -0.119 |
| RRIRYRPPRLPRPRPRPHEAPRP | -0.215 |
| RRIRYRPPRLPRPRPRPHEIPRP | -0.194 |
| RRIRYRPPRLPRPRPRPHEWPRP | -0.0416 |
| RRIRYRPPRLPRPRPRPHHPPRP | -0.38 |
| RRIRYRPPRLPRPRPRPHHYPRP | -1.79 |
| RRIRYRPPRLPRPRPRPHKIPRP | -0.226 |
| RRIRYRPPRLPRPRPRPHKTPRP | -0.0572 |
| RRIRYRPPRLPRPRPRPHPDPRP | -0.299 |
| RRIRYRPPRLPRPRPRPHPGPRP | -0.727 |
| RRIRYRPPRLPRPRPRPHPWPRP | -0.542 |
| RRIRYRPPRLPRPRPRPHSYPRP | -0.188 |
| RRIRYRPPRLPRPRPRPHTDPRP | -0.368 |
| RRIRYRPPRLPRPRPRPHTVPRP | -1.21 |
| RRIRYRPPRLPRPRPRPHVEPRP | 0.0184 |
| RRIRYRPPRLPRPRPRPHWFPRP | -0.402 |
| RRIRYRPPRLPRPRPRPHYSPRP | -0.124 |
| RRIRYRPPRLPRPRPRPICHPRP | -0.305 |
| RRIRYRPPRLPRPRPRPICKPRP | -0.193 |
| RRIRYRPPRLPRPRPRPICTPRP | -0.376 |
| RRIRYRPPRLPRPRPRPIDKPRP | -0.00865 |
| RRIRYRPPRLPRPRPRPIETPRP | -0.0177 |
| RRIRYRPPRLPRPRPRPIGHPRP | 3.4 |
| RRIRYRPPRLPRPRPRPIHLPRP | -1.26 |
| RRIRYRPPRLPRPRPRPIHSPRP | -0.0447 |

| Sequence | shrunken log2 fold change |
| --- | --- |
| RRIRYRPPRLPRPRPRPIKHPRP | -0.693 |
| RRIRYRPPRLPRPRPRPILDPRP | -0.253 |
| RRIRYRPPRLPRPRPRPILMPRP | -0.0114 |
| RRIRYRPPRLPRPRPRPIMIPRP | -0.0191 |
| RRIRYRPPRLPRPRPRPIMVPRP | -0.152 |
| RRIRYRPPRLPRPRPRPINHPRP | -0.675 |
| RRIRYRPPRLPRPRPRPINKPRP | -1.43 |
| RRIRYRPPRLPRPRPRPIQFPRP | -0.00822 |
| RRIRYRPPRLPRPRPRPIQMPRP | -0.0163 |
| RRIRYRPPRLPRPRPRPIQSPRP | -0.00206 |
| RRIRYRPPRLPRPRPRPISCPRP | -0.202 |
| RRIRYRPPRLPRPRPRPISIPRP | -0.134 |
| RRIRYRPPRLPRPRPRPITPPRP | -0.174 |
| RRIRYRPPRLPRPRPRPIVFPRP | -0.58 |
| RRIRYRPPRLPRPRPRPIWMPRP | -0.0399 |
| RRIRYRPPRLPRPRPRPIWNPRP | 0.0337 |
| RRIRYRPPRLPRPRPRPIYEPRP | 0.0166 |
| RRIRYRPPRLPRPRPRPIYHPRP | -0.85 |
| RRIRYRPPRLPRPRPRPIYIPRP | -0.673 |
| RRIRYRPPRLPRPRPRPKAKPRP | 0.0915 |
| RRIRYRPPRLPRPRPRPKALPRP | 0.178 |
| RRIRYRPPRLPRPRPRPKAQPRP | 0.35 |
| RRIRYRPPRLPRPRPRPKDHPRP | -0.487 |
| RRIRYRPPRLPRPRPRPKDVPRP | -0.0107 |
| RRIRYRPPRLPRPRPRPKENPRP | -0.0772 |

| Sequence | shrunken log2 fold change |
| --- | --- |
| RRIRYRPPRLPRPRPRPKFSPRP | -0.434 |
| RRIRYRPPRLPRPRPRPKFTPRP | -0.328 |
| RRIRYRPPRLPRPRPRPKFVPRP | -0.416 |
| RRIRYRPPRLPRPRPRPKGHPRP | -0.145 |
| RRIRYRPPRLPRPRPRPKGTPRP | -0.0217 |
| RRIRYRPPRLPRPRPRPKGVPRP | 0.028 |
| RRIRYRPPRLPRPRPRPKHCPRP | -0.611 |
| RRIRYRPPRLPRPRPRPKHLPRP | -0.155 |
| RRIRYRPPRLPRPRPRPKKMPRP | -0.374 |
| RRIRYRPPRLPRPRPRPKPKPRP | 0.394 |
| RRIRYRPPRLPRPRPRPKPPPRP | 0.524 |
| RRIRYRPPRLPRPRPRPKQKPRP | -0.0531 |
| RRIRYRPPRLPRPRPRPKRLPRP | -0.102 |
| RRIRYRPPRLPRPRPRPKRNPRP | -0.374 |
| RRIRYRPPRLPRPRPRPKSAPRP | 0.0745 |
| RRIRYRPPRLPRPRPRPKSEPRP | -0.0489 |
| RRIRYRPPRLPRPRPRPKVCPRP | 0.0165 |
| RRIRYRPPRLPRPRPRPKWDPRP | -0.46 |
| RRIRYRPPRLPRPRPRPKWWPRP | -0.0129 |
| RRIRYRPPRLPRPRPRPKWYPRP | -0.884 |
| RRIRYRPPRLPRPRPRPKYLPRP | 0.00379 |
| RRIRYRPPRLPRPRPRPLAKPRP | 0.19 |
| RRIRYRPPRLPRPRPRPLCAPRP | -0.356 |
| RRIRYRPPRLPRPRPRPLDMPRP | -0.151 |
| RRIRYRPPRLPRPRPRPLEGPRP | 0.0645 |
